Laboratory results published in publication PMC6375885, “Specific Inhibition of Soluble γc Receptor Attenuates Collagen-Induced Arthritis by Modulating the Inflammatory T Cell Responses” (Frontiers in Immunology, 2019).

Molecular target: the molecule itself
Assay: immunoprecipitation, non-reducing SDS-PAGE and immunoblot; culture supernatant of transfected HEK293T cells precipitated with α-mouse IL-2Rγ antibody and protein A/G agarose; resolved under non-reducing conditions (DTT-); blotted with biotinylated α-mouse IL-2Rγ antibody; dimer and monomer bands

B1: soluble common gamma chain (sγc), wild type (natural protein)
chain: WSSKVLMSSANEDIKADLILTSTAPEHLSAPTLPLPEVQCFVFNIEYMNCTWNSSSEPQATNLTLHYRYKVSDNNTFQECSHYLFSKEITSGCQIQKEDIQLYQTFVVQLQDPQKPQRRAVQKLNLQNLVIPRAPENLTLSNLSESQLELRWKSRHIKERCLQYLVQYRSNRDRSWTELIVNHEPRFSLPSVDELKRYTFRVRSRYNPICGSSQQWSKWSQPVHWGSHTVEECLQFPPSRI
notes: signal peptide in the construct; common gamma chain (γc, IL-2Rγ), the part before the new C-terminal 9 a.a. of the alternatively spliced soluble form; not part of the membrane form of γc; Secreted; found as a disulfide-linked dimer and as a monomer in the supernatant; The reverse primer has no stop codon, so a C-terminal tag from the vector may follow (surmise; also called WT sγc; soluble γc; …)
stoichiometry N: 2
